Columns and labels:
[1] = molecular target: hDAPK2 CD + ARD BL mutant (Arg47, Arg50, Arg53, Arg54 to glutamate) (human); assay: SAXS; EMBL P12 (PETRA-III), 2.0-15.0 mg/ml, 283 K; monomer/dimer equilibrium mixture fitted (OLIGOMER)
[2] = molecular target: calcium/calmodulin on Sepharose 4B (Sepharose 4B-CaM) (UniProt P0DP23); assay: pull-down; CaM pull-down of purified hDAPK2 variants, SDS-PAGE with Coomassie blue staining, three repetitions
[3] = molecular target: CrAsH-tagged calmodulin, calcium-bound (Ca^2+/CrAsH-CaM) (UniProt P0DP23); assay: fluorescence polarisation; fluorescence anisotropy, purified hDAPK2 CD + ARD variants titrated against Ca2+/CrAsH-CaM; KD estimated by non-linear regression, one-site specific binding (Prism), three experiments
[4] = molecular target: hDAPK2 CD + ARD W305D, BiFC construct (human); assay: split reporter (BiFC, NanoBiT); bimolecular fluorescence complementation in HEK293T cells, readout normalized to protein expression; endogenous Ca2+/CaM present
[5] = molecular target: calcium/calmodulin on Sepharose 4B (Sepharose 4B-CaM) (UniProt P0DP23); assay: pull-down; CaM pull-down of hDAPK2 variants from transfected HEK293T cells on Sepharose 4B-CaM, EGTA-mediated elution, western blot, three replicates

Substance	Kd [3]	also measured
hDAPK2 CD + ARD BL mutant (Arg47, Arg50, Arg53, Arg54 to glutamate) (domain or fragment)		percent monomer [1]: 89%; percent of the Ca2+/CaM binding of WT [2]: 46 % of WT
hDAPK2 CD + ARD W305D, BiFC construct (domain or fragment)		fold increase of the BiFC signal [4]: > 5 fold
hDAPK2 CD + ARD W305D, L226R (domain or fragment)	2.7 µM	
hDAPK2 W305D D220K mutant expressed in HEK293T cells (CaM pull-down from lysate) (natural protein)		fold increase of Ca2+/CaM binding against hDAPK2 W305D [5]: 2 fold

Further lines, with some results ahead:

Kd [3]	Substance	also measured
< 0.0035 µM	hDAPK2 CD + ARD S308A, D220K (domain or fragment)	
< 0.0035 µM	hDAPK2 CD + ARD S308A, L226R (domain or fragment)	
9.7 µM	hDAPK2 CD + ARD W305D, D220K (domain or fragment)	
